The results in this text go back to article PMC10210826.

In general, Kd refers to the equilibrium constant for the complex coming apart. A high value points to lower affinity.

The test concerns the target N-terminal biotinylated tetradecapeptide of the C-terminal portion of the SARS-CoV-2 E protein (SARS-CoV-2). Description: SPR.

With “PDZ2 domain of human ZO1 (ZO1-PDZ2 domain) (domain or fragment)”, the Kd is 2100 nM. This counts as single-digit micromolar.
